Experimental data as given in patent publication US10766960 (dated 2020).
Positions count from the first letter of the chain named. Read-outs that look alike come from different tables or passages of the source. One block for each binder: values may come before it.

Key:
Test in all cases: SPR
[1] = molecular target: T1, FcgRIIIa F (human, UniProt P08637)
[2] = molecular target: T2, FcgRIIa R (human, UniProt P12318)
T2 chain: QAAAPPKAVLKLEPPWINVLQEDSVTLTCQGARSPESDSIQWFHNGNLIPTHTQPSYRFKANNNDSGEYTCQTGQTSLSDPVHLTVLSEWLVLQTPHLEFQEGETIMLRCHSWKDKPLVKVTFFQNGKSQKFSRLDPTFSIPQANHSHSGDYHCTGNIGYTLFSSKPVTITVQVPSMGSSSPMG

[3] = molecular target: T3, FcgRIIb (human, UniProt P31994)
T3 chain: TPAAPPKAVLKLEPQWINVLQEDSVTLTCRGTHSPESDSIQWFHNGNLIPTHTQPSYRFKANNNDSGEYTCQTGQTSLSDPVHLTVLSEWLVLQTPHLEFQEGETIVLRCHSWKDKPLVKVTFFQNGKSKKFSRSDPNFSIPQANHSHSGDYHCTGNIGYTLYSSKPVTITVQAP

[4] = molecular target: T4, FcgRIIIa V (human, UniProt P08637)
[5] = molecular target: T5, FcgRIa (human, UniProt P12314)
T5 chain: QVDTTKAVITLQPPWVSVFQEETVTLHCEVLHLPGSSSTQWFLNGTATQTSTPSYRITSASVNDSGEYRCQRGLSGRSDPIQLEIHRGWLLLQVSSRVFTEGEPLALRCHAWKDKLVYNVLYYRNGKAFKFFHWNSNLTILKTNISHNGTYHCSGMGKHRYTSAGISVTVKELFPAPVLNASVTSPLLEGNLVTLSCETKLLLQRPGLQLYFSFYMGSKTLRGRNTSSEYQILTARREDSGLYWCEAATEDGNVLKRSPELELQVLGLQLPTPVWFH

[6] = molecular target: T6, FcgRIIa H (human, UniProt P12318)
T6 chain: T2 chain with R134H

[7] = molecular target: T6, FcgRIIa H
[8] = molecular target: T1, FcgRIIIa F; remark: listed apart in the source
[9] = molecular target: T3, FcgRIIb
[10] = molecular target: T5, FcgRIa
[11] = molecular target: T4, FcgRIIIa V; remark: listed apart in the source
[12] = molecular target: T2, FcgRIIa R
[13] = molecular target: T1, FcgRIIIa F; remark: listed apart in the source
[14] = molecular target: T3, FcgRIIb

T1 sequence (P08637 17-208): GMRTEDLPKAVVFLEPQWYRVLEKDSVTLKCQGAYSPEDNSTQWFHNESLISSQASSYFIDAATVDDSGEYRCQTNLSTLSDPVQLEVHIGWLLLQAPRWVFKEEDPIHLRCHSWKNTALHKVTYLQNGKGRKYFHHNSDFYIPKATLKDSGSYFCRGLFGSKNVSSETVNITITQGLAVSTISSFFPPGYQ
T4 sequence (P08637 17-208 F176V): as the sequence (P08637 17-208) above, with F160V counted along it

B1: H240-Kn166/H240-Hl170/L73-k0 (antibody)
chain 1: QDQLVQSGAEVKKPGASVKVSCKASGFNIKDTYIQWVRQAPGQGLEWMGRIDPLRKQTKYREKFEGRVTITADTSTNTAYMELSSLRSEDTAVYYCVRSGREFDYWGQGTLVTVSSASTKGPSVFPLAPSSKSTSGGTAALGCLVKDYFPEPVTVSWNSGALTSGVHTFPAVLQSSGLYSLSSVVTVPSSSLGTQTYICNVNHKPSNTKVDKKVEPKSCDKTHTCPPCPAPEYYWGPMVFLFPPKPKDTLMISRTPEVTCVVVDVSDEDPEVKFNWYVDGVEVHNAKTKPREEQYNATYRVVSVLTVLHQDWLNGKEYKCKVSNKDAPAPIEKTISKAKGQPREPQVCTLPPSRDELTKNQVSLWCLVKGFYPSDIAVEWESNGQPENNYKTTPPVLDSDGSFFLYSKLTVDKSRWQQGNVFSCSVMHEALHNHYTQKSLSLSP
chain 2: QDQLVQSGAEVKKPGASVKVSCKASGFNIKDTYIQWVRQAPGQGLEWMGRIDPLRKQTKYREKFEGRVTITADTSTNTAYMELSSLRSEDTAVYYCVRSGREFDYWGQGTLVTVSSASTKGPSVFPLAPSSKSTSGGTAALGCLVKDYFPEPVTVSWNSGALTSGVHTFPAVLQSSGLYSLSSVVTVPSSSLGTQTYICNVNHKPSNTKVDKKVEPKSCDKTHTCPPCPAPELLGGPSVFLFPPKPKDTLMISRTPEVTCVVVDVSHEEPEVKFNWYVDGVEVHNAKTKPREEQYNSTYRVVSVLTVLHQDWLNGKEYKCKVSNDAAPKPIEETISKAKGQPREPQVYTLPPSRCELTKNQVSLSCAVKGFYPSDIAVEWESNGQPENNYKTTPPVLDSDGSFFLVSKLTVDKSRWQQGNVFSCSVMHEALHNHYTQKSLSLSP
chain 3: DIQMTQSPSSLSASVGDRVTITCRASQDIHKYIAWYQQKPGQAPRLLIQYTSTLQPGVPSRFSGSGSGTDYTFTISSLQPEDIATYYCLQYEQLRTFGGGTKVEIKRTVAAPSVFIFPPSDEQLKSGTASVVCLLNNFYPREAKVQWKVDNALQSGNSQESVTEQDSKDSTYSLSSTLTLSKADYEKHKVYACEVTHQGLSSPVTKSFNRGEC
Kd [1]: 4.2 nM
Kd [2]: 31 nM
Kd [3]: 200 nM
Kd [4]: 1 nM
Kd [5]: 0.066 nM
Kd [6]: 22 nM

B3: H240-Kn173/H240-Hl068/L73-k0 (antibody)
chain 1: B1 chain 1 with A327L, I331Q
chain 2: B1 chain 2 with A327L
chain 3: B1 chain 3
Kd [1]: 1.8 nM
Kd [2]: 40 nM
Kd [3]: 280 nM
Kd [4]: 0.4 nM
Kd [5]: 0.12 nM
Kd [6]: 57 nM

B4: H240-Kn120/H240-Hl150/L73-k0 (antibody)
chain 1: B1 chain 1 with A327L
chain 2: B1 chain 2 with A327L, I331T
chain 3: B1 chain 3
Kd [1]: 3 nM
Kd [2]: 20 nM
Kd [3]: 98 nM
Kd [4]: 0.57 nM
Kd [5]: 0.39 nM
Kd [6]: 35 nM

B5: H240-Kn120/H240-Hl182/L73-k0 (antibody)
chain 1: B1 chain 1 with A327L
chain 2: B1 chain 2 with A230H, A327L
chain 3: B1 chain 3
Kd [1]: 3.1 nM
Kd [2]: 40 nM
Kd [3]: 240 nM
Kd [4]: 0.29 nM
Kd [5]: 0.18 nM
Kd [6]: 77 nM

B6: H240-Kn149/H240-Hl068/L73-k0 (antibody)
chain 1: B1 chain 1 with A327W, K333L
chain 2: B1 chain 2 with A327L
chain 3: B1 chain 3
Kd [1]: 1.5 nM
Kd [2]: 19 nM
Kd [3]: 150 nM
Kd [4]: 0.32 nM
Kd [5]: 0.38 nM
Kd [6]: 26 nM

B7: H240-Kn138/H240-Hl068/L73-k0 (antibody)
chain 1: B1 chain 1 with A327W
chain 2: B1 chain 2 with A327L
chain 3: B1 chain 3
Kd [1]: 3.7 nM
Kd [2]: 19 nM
Kd [3]: 130 nM
Kd [4]: 0.43 nM
Kd [5]: 0.16 nM
Kd [6]: 25 nM

B9: H240-Kn172/H240-Hl177/L73-k0 (antibody)
chain 1: B1 chain 1 with A327L, I331M
chain 2: B1 chain 2 with A327L, I331Q
chain 3: B1 chain 3
Kd [1]: 2 nM
Kd [2]: 29 nM
Kd [3]: 160 nM
Kd [4]: 0.22 nM
Kd [5]: 0.25 nM
Kd [6]: 57 nM

B10: H240-Kn120/H240-Hl170/L73-k0 (antibody)
chain 1: B1 chain 1 with A327L
chain 2: B1 chain 2
chain 3: B1 chain 3
Kd [1]: 3.9 nM
Kd [2]: 8.6 nM
Kd [3]: 67 nM
Kd [4]: 0.93 nM
Kd [5]: 0.19 nM
Kd [6]: 18 nM

B11: H240-Kn120/H240-Hl174/L73-k0 (antibody)
chain 1: B1 chain 1 with A327L
chain 2: B1 chain 2 with A327L, I331E
chain 3: B1 chain 3
Kd [1]: 0.51 nM
Kd [2]: 30 nM
Kd [3]: 130 nM
Kd [4]: 0.036 nM
Kd [5]: 0.14 nM
Kd [6]: 55 nM

B12: H240-Kn138/H240-Hl147/L73-k0 (antibody)
chain 1: B1 chain 1 with A327W
chain 2: B1 chain 2 with A327W
chain 3: B1 chain 3
Kd [1]: 22 nM
Kd [2]: 11 nM
Kd [3]: 110 nM
Kd [4]: 16 nM
Kd [5]: 0.31 nM
Kd [6]: 130 nM

Now from value to binder:

Kd [1]: 1.4 nM
Kd [2]: 26 nM
Kd [3]: 110 nM
Kd [4]: 0.19 nM
Kd [5]: 0.23 nM
Kd [6]: 65 nM
B2: H240-Kn178/H240-Hl068/L73-k0 (antibody)
chain 1: B1 chain 1 with A327L, K333Y
chain 2: B1 chain 2 with A327L
chain 3: B1 chain 3

Kd [7]: 230 nM
Kd [8]: 4.4 nM
Kd [9]: 2500 nM
Kd [10]: 0.17 nM
Kd [11]: 0.91 nM
Kd [12]: 260 nM
B8: H240-Kn227/H240-Hl210/L73-k0 (antibody)
chain 1: B1 chain 1 with Y233E, Y234Q, M238I, D269E, D326A, A327L
chain 2: B1 chain 2 with A327L, K329A
chain 3: B1 chain 3

Kd [13]: 320 nM
Kd [14]: 4500 nM
B13: GpH7-TA7/GpH7-B3/GpL16-k0 (antibody)
chain 1: QVQLVQSGAEVKKPGASVTVSCKASGYTFTDYEMHWIRQPPGEGLEWIGAIDPKTGDTAYSESFQDRVTLTADKSTSTAYMELSSLTSEDTAVYYCTRFYSYTYWGQGTLVTVSSASTKGPSVFPLAPSSKSTSGGTAALGCLVKDYFPEPVTVSWNSGALTSGVHTFPAVLQSSGLYSLSSVVTVPSSSLGTQTYICNVNHKPSNTKVDKKVEPKSCDKTHTCPPCPAPEYLWGPSVFLFPPKPKDTLMISRTPEVTCVVVDVSHEDPEVKFNWYVDGVEVHNAKTKPREEQYNATYRVVSVLTVLHQDWLNGKEYKCKVSNKALPAPIEKTISKAKGQPREPQVYTLPPSRKELTKNQVSLTCLVKGFYPSDIAVEWESNGQPENNYKTTPPVLDSDGSFFLYSKLTVDKSRWQQGNVFSCSVMHEALHNRYTQKSLSLSP
chain 2: not shown
chain 3: DIVMTQSPLSLPVTPGEPASISCQASESLVHSNRNTYLHWYLQKPGQSPQLLIYKVSNRFSGVPDRFSGSGSGTDFTLKISRVEAEDVGVYYCSQNTHVPPTFGQGTKVEIERTVAAPSVFIFPPSDEQLKSGTASVVCLLNNFYPREAKVQWKVDNALQSGNSQESVTEQDSKDSTYSLSSTLTLSKADYEKHKVYACEVTHQGLSSPVTKSFNRGEC

Kd [13]: 6.2 nM
Kd [14]: 610 nM
B14: GpH7-A57/GpH7-B78/GpL16-k0 (antibody)
chain 1: B13 chain 1 with Y232L, W234G, S237D, A296S, A328L, I330E
chain 2: B13 chain 1 with Y232L, W234G, S237D, A296S, A328L, I330E, K354D, R433H, K437E
chain 3: B13 chain 3

Kd [13]: 54 nM
Kd [14]: 430 nM
B15: GpH7-A5/GpH7-B78/GpL16-k0 (antibody)
chain 1: not shown
chain 2: B13 chain 1 with Y232L, W234G, S237D, A296S, A328L, I330E, K354D, R433H, K437E
chain 3: B13 chain 3
